A short description of the data set: yeast display, Sf9 membrane polyspecificity reagent, FACS + sequencing; frameworks hold sequencing errors. In a few lines: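 A synthetic nanobody library was expressed on Saccharomyces cerevisiae BJ5465 by galactose induction for 36–48 hours. The library was stained for 1 hour at 4 °C with 10% biotinylated, detergent-solubilized Sf9 membrane reagent and enriched with streptavidin microbeads before FACS. Low and high (top ~1%) gates were set on anti-HA fluorescence for expression and streptavidin fluorescence for reagent binding, and each polyreactivity label reflects the gate of origin.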
With “QVQLVESGGGLVQAGGSLRLSCAASGFIFGANAMGWYRQAPGKERELVAAITWSAGRTYYADSVKGRFTISRDNAKNNVYLQMNSLKPEDTAVYYCAKQRARQSPEVGYWGQGTQVTVSS”, the “polyreactivity (PSR sort gate)” value was “high polyreactivity”.

For the sequence “QVQLVESGGGLVQAGGSLRLSCAASGLTFIPNAMGWDRQAPGKERELVAAISGTGGSTYYADSVKGRFTISRDNAKNTVYLQMNSLKPEDTAVYYCAARRRYKSGYWGQGTQVTVSS”, the “polyreactivity (PSR sort gate)” value is given as “high polyreactivity”.

Turning to “QVQLVESGGCLVQAGGSLRLSCAASGIIFDDYAMGWYRQAPGKERELVAAISVSGGSTYYADSVKGRFTISRDNAKNTVYLQMKSLKPEDTAVYYCAARLRQPYSRGNYWGQGTQVTVSS”, the “polyreactivity (PSR sort gate)” value is listed as “high polyreactivity”.

With “QVQLGESGRGLVPAGGSLRLSCASSGSIFDRNARGWYRQAPGKERELVAAISSRGGSTYYADSVKGRFTISRDNAKNTVYLQMNSLKPEDTAVYYCNKVRTYGYDYWGQGTQVTVSS”, the “polyreactivity (PSR sort gate)” value is listed as “high polyreactivity”.

For “QVQLVESGGGLVQAGGSLRLSCAASGSTFGSYAMGWYRQAPGKERELVAAITASGGSTYYADSVKGRFTISRDNAKNTGYLQMNSLKPEDTAVYYCATRWFAFPWDEYNYWGQGTQVTVSS”, the “polyreactivity (PSR sort gate)” value is recorded as “low polyreactivity”.

Consider “QVQLHESGGGLVQAGRGLRLSCPASGSITSTGFMGSYRQPPGKEREPVAAIAPGTTTYYADSVKGRFTISRDNAKYTEYLQMNSLRPEDTAVYYCAVFTDNRVAFLYWGQGTQVTVSS”, for which the “polyreactivity (PSR sort gate)” value is recorded as “low polyreactivity”.

Take “QVQLVESGGGLVQAGGSLRLSCAASGRIFYGYTMGWYIQAPGKERELVAAISKHAGSTYYSDSVKGRFTISRDNAKNTVYLQMNSLKPEDTAVYYCAKDSSVQAYYGYWYTSTDDYWGQGTQVTVSS”: the “polyreactivity (PSR sort gate)” value was “low polyreactivity”.

Take “QVQLVESGGGLVQAGGSLRLSCAASGYTFGYYTMGWYRQAPRKERELVASIDSGGGTNYADSVKGRFTISRDNAKNTVYLQMNSLKPEDTAVYYCAAESPLYWVDDFESGWRYYYWGQGTQVTVSS”: the “polyreactivity (PSR sort gate)” value is “low polyreactivity”.

With “QVQLVESGGGLVQAGGSLRLSCAASGRTFGIYAMGWYRQAPGKERELVAAISSDASTSYADSVKGRFTISRDNAKNTVYLQMNSLKPEDTAVYYCAADPGPYYDWGYDYWGQGTQVTVSS”, the “polyreactivity (PSR sort gate)” value was “low polyreactivity”.

With “QVQLVDSGGGLVQAGGSLRLSCAASGRTFYSYAMGWYRQAPGKERELVSAISRNGGSTYYADSVKGRFTISRDNAKNSVYLQMNSLKPEDTAVYYCAAKRAGPYGISKGMDYWGQGTQVTVSS”, the “polyreactivity (PSR sort gate)” value is on record as “high polyreactivity”.

On to “QVQLVESGGGLVQAGGSLRLSCAASGFTFGRNAMGWYRQAHGKERELVASIDWSGGSTYYADSVKGRFTISRDNAKNTFYLQMNTLKPEDTAVYYCAVGPNSVGNRSYGFDYWGQGTQVTLSS”, for which the “polyreactivity (PSR sort gate)” value was “low polyreactivity”.

Consider “QVQLVESGGGLVQAGGSLRLSCAASGITFYDYAMGWYRQAPGKERELVAAISGGGITYYADSVKGRFTISRDNAKNTVYLQMNSLKPEDTAVYYCAADAYGYGGDSWGQGTQVTVSS”, for which the “polyreactivity (PSR sort gate)” value was “low polyreactivity”.

For the sequence “QVQLVESVGDLVQAGGSLRLSCAASGRNFPVYAMGWYRQAPGKERELVAAITFRSGSTYYADSVKGRFTISRDNAKNTVYLQMNSLKPEDTAVYYCAADFSVQYVGYSAIEGYWGQGTQVTVSS”, the “polyreactivity (PSR sort gate)” value is recorded as “high polyreactivity”.

Consider “QVQLVESGGGLVQAGGSLRLSCAASGFTSRLYAMGWYRQAPGKEREFVAAISWDGTRTYYADSVKGRFTISRDNAKNTVYLQMNSLKPEDTAVYYCNARRRQWQARYDYWGQGTQITVSS”, for which the “polyreactivity (PSR sort gate)” value is reported as “high polyreactivity”.

Consider “QVQLVESGVGLVKAGGILRLSCAASGSIFLRYAMGWYRQAPGKERELVATISKSGGSTYYADSVKGRFTISRDNAKNTVYLQMNSLNPEDTAVYYCAAGYVYFQTYYYWGQGTQVTVSS”, for which the “polyreactivity (PSR sort gate)” value is “high polyreactivity”.

In the case of “QVQLVESGGGLVQAGGSLRLSCAASGSTFSYYTMPWYRQAPGKERELVAAISRSGANTHYADSVKGRFTISRDNAKITVYLQMNSMKPEDTAVYYCAKVHSGRHYDYWGQGTQVTVSS”, the “polyreactivity (PSR sort gate)” value is on record as “high polyreactivity”.

“QVQLVESGGGLVQAGGSLRLSCAASGFIFRINAMGWYRQAPGKERELVAAITSSGGSTYYADSVKGRFTISRDNAKNTVYLQMNSLKPEDTAVYYCAASRPRPPSSRRMDYWGQGTQVTVSS”: the “polyreactivity (PSR sort gate)” value is given as “high polyreactivity”.

“QVQLVESVGGLVQAGGSLRLSCAASGLIFATYAMGWYRQAPGKESELVADITTTGSTYYADSVKGRFTISRDNAKNTDYLQMNSLKPEATAVYYCAAYCRLLSGYDFDYWGKGTQVTVSS”: the “polyreactivity (PSR sort gate)” value is on record as “high polyreactivity”.

As for “QVQLVESGGCLVQAGGSLRLSCAASGSTFWGYTMGWYRQAPGKVRELVAAISSDGSTNYADSVKGRFTISRDNAKNTVYLQMNSLKPEDTAVYDCNTVYDPDTGQSDSWGQGTQVTVSS”, the “polyreactivity (PSR sort gate)” value was “low polyreactivity”.

Consider “QVQLVESGGGLVQAGGSLRLSCAASGSIFRRNAMGWYRQAPAKERDLVAAISVRGGSTYYAYSVKGRFTISRDLAKNTVYLQMISLKPEDTAVYYCAADEFDDYDWYRGYDSTYDYWGQGTQVTVST”, for which the “polyreactivity (PSR sort gate)” value is recorded as “low polyreactivity”.

With “QDQLVDSRGGLVQAGGSLRLSCAASGLIFRSYAMGWSRQAPGKERELVAAITDLFWSTYYADSVKGRFTISRDYAKNTVYLQMNSLKPEDNAVFYCARDDWVYTNVEMDYWGQGTQVTVSS”, the “polyreactivity (PSR sort gate)” value was “high polyreactivity”.

On to “QVHLVESGGGLVQAGGSLRLSCAASGSTFQLYAMGWYRQAPGKERELVAAITSSAGRTYYADSVKGRFTISRDNAKNTVYLQMNSLKPEDTAVYYCAKDGSFTFWGQGTQVTVSS”, for which the “polyreactivity (PSR sort gate)” value is on record as “low polyreactivity”.

In the case of “QVQLVESGGGLVQAGGSLRLSCAASGRTFSYYAMGWYRQAPGKERELVAAIRRSSGTTYYADSVKGRFTISSDNAKNTVYLQMNSLKPEDTAVYYCNARSRRASIKRDYWGQGTQVTVSS”, the “polyreactivity (PSR sort gate)” value is recorded as “high polyreactivity”.

For “QVQLEESGGGLVQAGGSLRLSCAASGSTIPRNAMGWYRQAPGKERELVAAITSGGSTNYADSVKGRFTISRDNAKNTVYLQMNSLKPEDTSVYYCAADEQVNTQYVVWGDYWGQGTQVTVSS”, the “polyreactivity (PSR sort gate)” value is listed as “low polyreactivity”.

For the sequence “QVQLVESGGGLVQAGGSLRLSCAASGSIFDRYAMGWYRQAPGKERELVAAISTGGSTNYADSVKGRFTISRDNAKNSVYLQMNSLKPEDTAVYYCAARYLYRMYYWGQGTQVTVSS”, the “polyreactivity (PSR sort gate)” value is recorded as “low polyreactivity”.

For “QVQLVESGGGLVQAGGSLRLSCAASGSIFTYNAMGWYRQAPGKERELVATISDGGSTYYADSVKGRFTISRDNAKNTVYLQMNSLKPEDTAVYYCNKDRVSVRYEYWGQGTQVTVSS”, the “polyreactivity (PSR sort gate)” value was “low polyreactivity”.

Take “QVQLVESGGGLVQAGGSLRLSCAASGSTFRVYAMGWYRQAPGKERELVATISWGGGRTYYADSVKGRFTISRDNAKNTVYLQMNSLKPEDTAVYYCAADQRWTTDQPTAGDYWGQGTQVTVSS”: the “polyreactivity (PSR sort gate)” value is recorded as “low polyreactivity”.

Regarding “QVQLVESGGGLVQAGGSLRLSCAASGRIFERYAMGWYRQAPGKERELVAAISWSGGSTYYADSVKGRFTISRDNAKNTVYLQMNSLKPEDTAVYYCAARKYRSFRQRTGDYWGQGTQVTVSS”, the “polyreactivity (PSR sort gate)” value was “high polyreactivity”.

Consider “QVQLVESGGGLVQAGGSLRLSCAASGRIFTTYVMGWYRQAPGKEWELVAAISARGSTYYADSVKGRFTISRDNAKNTVYLQMNSLKPEDTEVYYCAAGPRLPVYYGYPRATYNDWGQGTQVTVSS”, for which the “polyreactivity (PSR sort gate)” value was “low polyreactivity”.

For “QVQLVESGGGLVQAGGSLRLSCASSVSTVKYAMGWYRQAPGKERELVAAISKSAGRTYYADSVKGRFTISRDNAKNTVYLQMNSLKPVDTAVYYCADRQSYYGDDYWGQCTQVTVSS”, the “polyreactivity (PSR sort gate)” value is on record as “high polyreactivity”.

Take “QVQLVESGGGLVQAGGSLRLSCAASGGIFSTYTMRWYRQAPGKERELVAAITTGNSTYYADSVKGRFTISRDNAKNTVYLQMNSLKPEDTAVYYCAAFAASRDYYRRLFHDGYDYWGQGTQVTVSS”: the “polyreactivity (PSR sort gate)” value is listed as “low polyreactivity”.

As to “QVQLVESGGGLVQAGGSLRLSCAASGRTFSYYALGWYRQAPGKERELVATISYSTGNTNYADSVKGRFTISRDNAKNTVYLQMNSLKPEDTAVYYCAADFSPFVGETYWKYDYWGQGTQVTVSS”, the “polyreactivity (PSR sort gate)” value is given as “low polyreactivity”.

As to “QVQLVESGGGLVQAGGSLRLCCAASGFICGKYALGWYRQAAGNEWVLVAAITSDGRTYYADSVKGRFTISRDNPKNTVYVQMNSLKPEDTAVYYCAVDYYWYSYSGYDDYWGQGTQVTVSS”, the “polyreactivity (PSR sort gate)” value is recorded as “high polyreactivity”.

In the case of “QVQLVESGGCLVQAGGSLRLSCADSGLTFTHYTKGWYRQAPGKVRELVAAITTSGGSTYYADSVKGRFTISRDNAKNTVYLQMNSLKPEDTAVYDCDSDVWYWTYIGEYWGQGTQVTVSS”, the “polyreactivity (PSR sort gate)” value is recorded as “high polyreactivity”.

For “QVQLVESRGGLVQAGGSLRLSCAASGFTFGNYAMGWYRQAPGKEREMVAAISWSGGSTYNADSVKGRFTISRDNAKKTVYLQMNSLKPEDTAVYYCNAIRGSLWESDYWGQGTQVTVSS”, the “polyreactivity (PSR sort gate)” value is “high polyreactivity”.

In the case of “QVQLVESGGGLVQAGGSLRISCAASGGIFFQNAMGWYRQAPGKERELVAAISWSAGSTYYADSVKGRFTISRDNAKNSVDLQMNRQKPEDTAVDSCAGRVGCGRAIDLYYYWGQGTQVTVSS”, the “polyreactivity (PSR sort gate)” value is “low polyreactivity”.

“QVQLVESGGGLVQAGGSLRLSCASSGRTFYRNAMGWYRQAPGKERELVAAIRGSGSSTYYADSVKGRFTISRDNAKNSVYLQMKSLKQEDTAVYYCAADYINYNGYARYYFWGQGTQVTVSS”: the “polyreactivity (PSR sort gate)” value is given as “high polyreactivity”.

On to “QVQLVESGGGLVQAGGSLRLSCAASGFTIRWYTMGWYRQAPWKERELVATINWSGGSTYYADSVKGRFTISRDNAKNTVYLQMNSLIPEDTAVYYCARRQSGTIKTRMDYWGQGTQVTVSS”, for which the “polyreactivity (PSR sort gate)” value is “high polyreactivity”.

“QVQLVESGGGLVQAGGSLRLSCAASGRIFHYAIGWYRQAPGKESELVAGISKRGGSTYYADSVKGRFTISRDNAKNTVYLQMNSLKPEDTAVYYCSKEHYWTLNGLTSYYWGQGSQVTVSS”: the “polyreactivity (PSR sort gate)” value is reported as “high polyreactivity”.

Take “QVQLEESGGGLVQEGGSLRLSCADSGFTLWLNAMGWYRQAPGKERELVAAITTSDDGTYYADSVKGRFTISRDNAKNSVYLQMNSMKPEDTAVYYCAADYYSVLYDYWVQGTQVTVSS”: the “polyreactivity (PSR sort gate)” value is recorded as “low polyreactivity”.

As to “QVQLQGSGGGLVQSGGSLRLSCAASGKIFDADIMGWYRQAPGKESELVASITHGGSTNYADSVKGRFTISRDNAKNNVYLQMNSLIQEDTAVYYCAAIAYPDIPTYFDYDSDCFYWSQGTQVTVSS”, the “polyreactivity (PSR sort gate)” value is on record as “high polyreactivity”.

(Values after the nanobody polyreactivity screen of Harvey et al. (2022).)
